These results are taken from PMC8977143, “PDIA3/ERp57 promotes a matrix-rich secretome that stimulates fibroblast adhesion through CCN2” (American Journal of Physiology - Cell Physiology, 2022).

The target in this test is T1, Native human platelet thrombospondin-1 (human, UniProt P07996 19-1170).
T1 construct: thrombospondin-1 (TSP1), human, native protein from platelets; also called TSP1; native human TSP1; source: bought: Cell Sciences Inc. (Cat. No. CSL19832A), native from human platelets
Briefly: ELISA; solid-phase binding: PDIA3/ERp57 or CCN2 coated at various concentrations on Immulon 2Hb wells in TBS with 2 mM CaCl2 and 15 µM ZnSO4, 16 h at 4°C; blocked with 5% BSA; 50 µg/mL (388 µM as printed) native human TSP1 added for 1 h at room temperature; detected with anti-TSP1 (C9) and anti-mouse-IgG-HRP, absorbance at 450 nm. The conditions noted are these: both partners purified. For orientation: In an ELISA, binding on a coated surface is turned into a signal by an enzyme label.

T1 sequence (P07996 19-1170): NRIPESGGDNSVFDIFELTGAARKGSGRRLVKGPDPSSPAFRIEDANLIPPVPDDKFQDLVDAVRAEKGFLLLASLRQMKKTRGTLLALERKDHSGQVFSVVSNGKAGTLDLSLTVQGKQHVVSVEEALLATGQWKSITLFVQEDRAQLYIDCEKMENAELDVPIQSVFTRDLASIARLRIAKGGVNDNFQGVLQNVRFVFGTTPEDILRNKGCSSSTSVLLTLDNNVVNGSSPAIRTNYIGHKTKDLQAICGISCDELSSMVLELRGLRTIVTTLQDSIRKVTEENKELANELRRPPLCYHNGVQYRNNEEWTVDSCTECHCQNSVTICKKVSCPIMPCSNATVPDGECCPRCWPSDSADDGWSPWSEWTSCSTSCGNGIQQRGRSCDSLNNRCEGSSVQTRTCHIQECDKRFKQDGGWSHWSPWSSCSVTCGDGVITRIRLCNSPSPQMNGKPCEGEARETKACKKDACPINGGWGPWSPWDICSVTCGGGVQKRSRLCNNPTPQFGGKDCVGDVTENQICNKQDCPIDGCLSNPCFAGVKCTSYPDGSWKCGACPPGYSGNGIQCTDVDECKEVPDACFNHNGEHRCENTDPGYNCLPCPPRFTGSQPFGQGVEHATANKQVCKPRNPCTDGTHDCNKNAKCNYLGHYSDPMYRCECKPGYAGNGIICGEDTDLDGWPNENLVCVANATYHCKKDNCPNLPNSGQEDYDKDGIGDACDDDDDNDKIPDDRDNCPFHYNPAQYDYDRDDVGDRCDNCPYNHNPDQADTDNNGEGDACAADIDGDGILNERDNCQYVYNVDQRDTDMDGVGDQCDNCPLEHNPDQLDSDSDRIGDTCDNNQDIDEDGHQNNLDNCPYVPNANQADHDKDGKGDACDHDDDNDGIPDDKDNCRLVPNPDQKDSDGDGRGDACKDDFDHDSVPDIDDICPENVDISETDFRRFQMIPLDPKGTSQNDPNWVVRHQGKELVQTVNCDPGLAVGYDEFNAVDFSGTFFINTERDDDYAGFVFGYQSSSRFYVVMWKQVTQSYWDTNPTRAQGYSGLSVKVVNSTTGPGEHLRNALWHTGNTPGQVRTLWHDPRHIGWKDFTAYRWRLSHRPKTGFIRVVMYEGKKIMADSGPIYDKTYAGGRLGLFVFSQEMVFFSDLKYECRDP

B1: Recombinant human CCN2 (natural protein, UniProt P29279 27-349, looked up)
chain: QNCSGPCRCPDEPAPRCPAGVSLVLDGCGCCRVCAKQLGELCTERDPCDPHKGLFCHFGSPANRKIGVCTAKDGAPCIFGGTVYRSGESFQSSCKYQCTCLDGAVGCMPLCSMDVRLPSPDCPFPRRVKLPGKCCEEWVCDEPKDQTVVGPALAAYRLEDTFGPDPTMIRANCLVQTTEWSACSKTCGMGISTRVTNDNASCRLEKQSRLCMVRPCEADLEENIKKGKKCIRTPKISKPIKFELSGCTSMKTYRAKFCGVCTDGRCCTPHRTTTLPVEFKCPDGEVMKKNMMFIKTCACHYNCPGDNDIFESLYYRKMYGDMA
notes: cell communication network 2 (CCN2/CTGF), human, recombinant; Limits, host and tags are told only by the supplier's data sheet; also called cell communication network 2; CTGF; source: bought: R&D (Cat. No. 9190-CC-050)
B1: the binding result was “binds”.

B2: Recombinant human PDIA3/ERp57 (enzyme, UniProt P30101 25-505, looked up)
chain: SDVLELTDDNFESRISDTGSAGLMLVEFFAPWCGHCKRLAPEYEAAATRLKGIVPLAKVDCTANTNTCNKYGVSGYPTLKIFRDGEEAGAYDGPRTADGIVSHLKKQAGPASVPLRTEEEFKKFISDKDASIVGFFDDSFSEAHSEFLKAASNLRDNYRFAHTNVESLVNEYDDNGEGIILFRPSHLTNKFEDKTVAYTEQKMTSGKIKKFIQENIFGICPHMTEDNKDLIQGKDLLIAYYDVDYEKNAKGSNYWRNRVMMVAKKFLDAGHKLNFAVASRKTFSHELSDFGLESTAGEIPVVAIRTAKGEKFVMQEEFSRDGKALERFLQDYFDGNLKRYLKSEPIPESNDGPVKVVVAENFDEIVNNENKDVLIEFYAPWCGHCKNLEPKYKELGEKLSKDPNIVIAKMDATANDVPSPYEVRGFPTIYFSPANKKLNPKKYEGGRELSDFISYLQREATNPPVIQEEKPKKKKKAQEDL
notes: protein disulfide isomerase A3 (PDIA3/ERp57), human, recombinant; Limits, host and tags are told only by the supplier's data sheet; source: bought: Abcam (Cat. No. ab92937)
On to B2, for which the binding result is “binds”.
